The values below come from publication doi:10.1101/2025.05.15.25327633.

The assay concerns the target Platelet-factor 4 (Human CXCL4) (human). Briefly: cross-linking + AUC.

Take “Platelet-factor 4 (Human CXCL4) (natural protein)”: the percent of PF4 present as tetramers came to 81.2% and the stoichiometry N was determined as 4.
